Source: patent US7790697B2, “Compositions and methods for inhibiting the synthesis or expression of MMP-1” (Trustees of Dartmouth College, priority 2004, dated 2010)

How the values were obtained:
Format in all cases: cell-based, human
[1] = test system: interferon-responsive genes; assay: Interferon response RT-PCR assay; settings: pooled stable MDA-231 cell lines
Protocol: Interferon Response RT-PCR Assay. RNA pooled from MDA-231 ells containing empty vector or the MMP-1 shRNA were reverse-transcribed with M-MLV reverse transcriptase (INVITROGEN™) according to the manufacturer's instructions. Briefly, 3 μg of RNA, 99 ng random hexamers, and 10 nmoles of dNTP were combined to a total volume of 12 μL. The mixture was incubated at 65° C. for 5 minutes and cooled to 4° C. Four μL of 5× […], 2 μL of 0.1 M DTT, and 1 μL of RNase inhibitor A (40 U/μL) were then added to the reaction and it was incubated at 37° C. for 2 minutes. One μL of M-MLV reverse transcriptase was added to the reaction and incubated at 25° C. for 10 minutes, 37° C. for 50 minutes and 70° C. for 15 minutes. The expression levels of 11 interferon-responsive genes and GAPDH were then estimated using semi-quantitative PCR and the human interferon-response MULTIGENE-12™ RT-PCR Profiling Kit (SuperArray Bioscience Co., Frederick, Md.).
To determine whether the MMP-1 shRNA was producing a shRNA-associated interferon response in the stable cell lines, the expression levels of 11 interferon-responsive genes was compared between pools of stable cell lines (Bridge, et al. (2003) Nat. Genet. 34:263-4).

MMP-1 protein = assay: Western blot of MMP-1 protein in culture medium; settings: MDA-231 cells producing the shRNA; 24 hours
Protocol: Western Blot Analysis. MDA-231 cells were cultured in 1 mL serum-free DMEM/F12 medium in six-well plates in the presence or absence of a collagen gel, with or without aprotinin (50 U/mL; Sigma, St. Louis, Mo.). After 24 hours, medium was harvested, proteins precipitated with cold 10% trichloroacetic acid, and resuspended in 50 μL SDS loading buffer (PROMEGA®, Madison, Wis.). Following SDS-PAGE and transfer to a PVDF membrane (IMMOBILON™-P; MILLIPORE™, Bedford, Mass.), the membrane was incubated in a 5% milk, Tris-buffered saline solution with 0.1% TWEEN™ (milk TBST) for 1 hour. The membrane was probed with a MMP-1 polyclonal antibody (CHEMICON®, Temecula, Calif.) diluted 1:5000 in milk TBST overnight at 4° C. The membrane was washed three times with TBST, and a 1:2000 dilution of goat anti-rabbit horseradish peroxidase (HRP) conjugated antibody (CELL SIGNALING TECHNOLOGY®, Beverly, Mass.) in milk TBST was added for 60 minutes. The blot was washed three times with TBST, and HRP activity was detected with the WESTERN LIGHTNING® chemiluminescence reagent according to the manufacturer's instructions (PERKINELMER®, Boston, Mass.).
The three MMPs primarily responsible for degrading type 1 collagen are MMP-1, MMP-13, and the membrane bound MT1-MMP (Stamenkovic (2003) J. Pathol. 200:448-64). […]

MMP-1 mRNA = MMP-1 mRNA by real-time RT-PCR in transiently transfected NIH/3T3 cells; settings: NIH/3T3 cells co-transfected with pCMV-MMP-1 and peGFP; 48 hours after transfection; normalized to eGFP mRNA; P=0.015
Protocol: Transfection of NIH/3T3 and MDA-231 Cells. NIH/3T3 cells were transiently transfected with LIPOFECTAMINE™ 2000 (INVITROGEN™, Carlsbad, Calif.) along with 0.5 μg peGFP, 0.5 μg pCMV-MMP-1, and 2 μg PSUPER™-MMP-1 shRNA or PSUPER™ with no insert. Transfection efficiency was monitored using eGFP signal. Total cellular RNA was harvested 48 hours after transfection and analyzed for MMP-1 mRNA by real-time RT-PCR. MDA-231 cells were stably transfected in triplicate with LIPOFECTAMINE™ 2000 (INVITROGEN™, Carlsbad, Calif.) and 2 μg of the PSUPER™.Retro.Neo.GFP plasmid containing the MMP-1 shRNA, the scrambled sequence or just the empty vector. Stable cell lines were selected by growth in the presence of 1 mg/mL G418 (STRATAGENE®, La Jolla, Calif.). Individual, stable cell lines were isolated with cloning disks according to the manufacturer's instructions (PGC Scientifics, Frederick, Md.).
RNA Isolation and Real-Time RT-PCR.
To test the efficacy of the shRNA inhibition of MMP-1 expression, shRNA composed of SEQ ID NO:1 and SEQ ID NO:2 was cloned it into the PSUPER™ shRNA vector. Two PSUPER™ plasmids were used; one with the MMP-1 shRNA sequence to block MMP-1 gene expression, and one with only the plasmid vector. […]

B1: MMP-1 shRNA: Vector-expressed small hairpin RNA, SEQ ID NO:1 (sense) and SEQ ID NO:2 (antisense), specific to bases 234-252 of MMP-1 mRNA (nucleic acid)
sense: GATCCCCACCAGATGCTGAAACCCTGTTCAAGAGACAGGGTTTCAGCATCTGGTTTTTTGGAAA
antisense: AGCTTTTCCAAAAAACCAGATGCTGAAACCCTGTCTCTTGAACAGGGTTTCAGCATCTGGTGGG
modifications: the letters are possibly those of the target site
- interferon response overall (11 interferon-responsive genes) [1]: no consistent upregulation of interferon-responsive gene expression
- increase in expression of MxA and GBP1 compared to empty vector cell lines ([1]; semi-quantitative RT-PCR): ~50%
- MMP-1 protein in medium (western blot) (MMP-1 protein): No detectable MMP-1 protein
- MMP-1 mRNA levels lower than empty vector (MMP-1 mRNA): 73%
